The results in this text go back to IntAct's records for PubMed 18625701.

To fix the notation:
B1: Brefeldin A-inhibited guanine nucleotide-exchange protein 2 (Homo sapiens), Q9Y6D5 (parent)
chain: MQESQTKSMFVSRALEKILADKEVKRPQHSQLRRACQVALDEIKAEIEKQRLGTAAPPKANFIEADKYFLPFELACQSKSPRVVSTSLDCLQKLIAYGHITGNAPDSGAPGKRLIDRIVETICSCFQGPQTDEGVQLQIIKALLTAVTSPHIEIHEGTILQTVRTCYNIYLASKNLINQTTAKATLTQMLNVIFTRMENQVLQEARELEKPIQSKPQSPVIQAAAVSPKFVRLKHSQAQSKPTTPEKTDLTNGEHARSDSGKVSTENGDAPRERGSSLSGTDDGAQEVVKDILEDVVTSAIKEAAEKHGLTEPERVLGELECQECAIPPGVDENSQTNGIADDRQSLSSADNLESDAQGHQVAARFSHVLQKDAFLVFRSLCKLSMKPLGEGPPDPKSHELRSKVVSLQLLLSVLQNAGPVFRTHEMFINAIKQYLCVALSKNGVSSVPDVFELSLAIFLTLLSNFKMHLKMQIEVFFKEIFLNILETSTSSFEHRWMVIQTLTRICADAQCVVDIYVNYDCDLNAANIFERLVNDLSKIAQGRSGHELGMTPLQELSLRKKGLECLVSILKCMVEWSKDLYVNPNHQTSLGQERLTDQEIGDGKGLDMARRCSVTSMESTVSSGTQTTVQDDPEQFEVIKQQKEIIEHGIELFNKKPKRGIQFLQEQGMLGTSVEDIAQFLHQEERLDSTQVGDFLGDSARFNKEVMYAYVDQLDFCEKEFVSALRTFLEGFRLPGEAQKIDRLMEKFAARYIECNQGQTLFASADTAYVLAYSIIMLTTDLHSPQVKNKMTKEQYIKMNRGINDSKDLPEEYLSSIYEEIEGKKIAMKETKELTIATKSTKQNVASEKQRRLLYNLEMEQMAKTAKALMEAVSHAKAPFTSATHLDHVRPMFKLVWTPLLAAYSIGLQNCDDTEVASLCLEGIRCAIRIACIFGMQLERDAYVQALARFSLLTASSSITEMKQKNIDTIKTLITVAHTDGNYLGNSWHEILKCISQLELAQLIGTGVKTRYLSGSGREREGSLKGHTLAGEEFMGLGLGNLVSGGVDKRQMASFQESVGETSSQSVVVAVDRIFTGSTRLDGNAIVDFVRWLCAVSMDELASPHHPRMFSLQKIVEISYYNMNRIRLQWSRIWHVIGDHFNKVGCNPNEDVAIFAVDSLRQLSMKFLEKGELANFRFQKDFLRPFEHIMKKNRSPTIRDMAIRCIAQMVNSQAANIRSGWKNIFAVFHQAASDHDGNIVELAFQTTCHIVTTIFQHHFPAAIDSFQDAVKCLSEFACNAAFPDTSMEAIRLIRFCGKYVSERPRVLQEYTSDDMNVAPGDRVWVRGWFPILFELSCIINRCKLDVRTRGLTVMFEIMKSYGHTFEKHWWQDLFRIVFRIFDNMKLPEQLSEKSEWMTTTCNHALYAICDVFTQFYEALNEVLLSDVFAQLQWCVKQDNEQLARSGTNCLENLVISNGEKFSPEVWDETCNCMLDIFKTTIPHVLLTWRPVGMEEDSSEKHLDVDLDRQSLSSIDKNPSERGQSQLSNPTDDSWKGRPYANQKLFASLLIKCVVQLELIQTIDNIVFYPATSKKEDAEHMVAAQQDTLDADIHIETEDQGMYKYMSSQHLFKLLDCLQESHSFSKAFNSNYEQRTVLWRAGFKGKSKPNLLKQETSSLACCLRILFRMYVDENRRDSWEEIQQRLLTVCSEALAYFITVNSESHREAWTSLLLLLLTKTLKINDEKFKAHASMYYPYLCEIMQFDLIPELRAVLRKFFLRIGVVYKIWIPEEPSQVPAALSPVW

The variants in this assay derive from B1. Conditions: with kap3_human PRKAR2B.
With V289W, the “effect of a mutation on the interaction” value is “disrupting interaction”. In the case of V534W it was “disrupting interaction”.
